Experiment: Formulation stability of lyophilisate form (HPLC content and purity, pH) on storage
Assay type: physicochemical
Method: Stabilities measurements were performed by means of High Performance Liquid Chromatographic (HPLC) method. The HPLC system a HPLC Waters Alliance 2695 completed by detection system 2487 Dual λ Absorbance Detector, the column used was a C18, 250×4.6 mm. All details concerning instrumental conditions are gathered in table 6. Elution conditions are gathered in table 7. Two pharmaceutical forms were studied in parallel for stability assays over six months at +5° C. and +25° C./60% RH (relative humidity) and +40° C./75% RH. Measurements were carried out in parallel with (in either wfi, or 5% dextrose as solvent) and a lyophilisate (drug substance on its own) or as second variant of formulations with an additional bulking agents such as mannitol, glycine and trehalose) in WFI. […] C (% initial) represents the content expressed in percentage at the moment T with regard to the content at the moment Tzero. […] In table 7 are gathered the elution program, the ratio of each eluant (mobile phase) used for measurement of formulation stabilities. […] Thereafter 20 ml of acetic acid 0.1 N were added under shaking by means of a vortex and if required additionally dissolved in ultrasonic bath in order to obtain a total dissolution. Weight of brut BI[…] 760 was calculated by means of the following relation: […]

SMILES: CCCN1CC(CSCC(=O)N[C@H](CCCCNC(=O)CSC[C@@H]2C[C@@H]3c4cccc5[nH]cc(c45)C[C@H]3N(CCC)C2)C(=O)N[C@H]2CSSC[C@@H](C(=O)N[C@H](C(N)=O)[C@@H](C)O)NC(=O)[C@H](CC)NC(=O)[C@H](CCCCN)NC(=O)[C@@H](Cc3c[nH]c4ccccc34)NC(=O)[C@H](Cc3ccc(O)cc3)NC2=O)C[C@@H]2c3cccc4[nH]cc(c34)C[C@H]21 (stereo partly drawn) [BIM23A760, Dop2-DLys(Dop2)-c(Cys-Tyr-DTrp-Lys-Abu-Cys)-Thr-NH2]
- C (% initial) (+5° C., T3 Months): 103.6% initial
- P (% a/a) (+5° C., T3 Months): 96.10% a/a
- pH (+5° C., T3 Months): 6.64
- C (% initial) (+5° C., T6 Months): 73.0% initial
- P (% a/a) (+5° C., T6 Months): 96.80% a/a
- pH (+5° C., T6 Months): 5.81
- C (% initial) (+25° C./60% RH, T0): 100% initial
- P (% a/a) (+25° C./60% RH, T0): 95.90% a/a
- pH (+25° C./60% RH, T0): 6.8
- C (% initial) (+25° C./60% RH, T3 Months): 98.8% initial
- P (% a/a) (+25° C./60% RH, T3 Months): 93.70% a/a
- pH (+25° C./60% RH, T6 Months): 6.63
- C (% initial) (+40° C./75% RH, T1 Month): 52.0% initial
- P (% a/a) (+40° C./75% RH, T1 Month): 95.9% a/a
- C (% initial) (+40° C./75% RH, T3 Months): 29.0% initial
- P (% a/a) (+40° C./75% RH, T3 Months): 95.5% a/a
- pH (+40° C./75% RH, T3 Months): 5.60
- pH (+40° C./75% RH, T6 Months): 5.62
